This is an account of results in patent publication US20100278929A1.

The chains are these.
B1: A17d4(1) monoclonal antibody (antibody, V domains shown)
VH: QVTLRESGPALVKPTQTLTLTCTFSGFSLSTAGMSVGWIRQPPGKALEWLADIWWDGKKSYNPSLKDRLTISKDTSKNQVVLKVTNMDPADTATYYCARDMIFNFYFDVWGQGTTVTVSS
VL: DIQMTQSPSTLSASVGDRVTITCLPSSRVGYMHWYQQKPGKAPKLLIYDTMYQSSGVPSRFSGSGSGTEFTLTISSLQPDDFATYYCFQGSGYPFTFGGGTKVEIK
B2: A1h5 Fab fragment (Fab, V domains shown)
VH: B1 VH with S60H, F105W
VL: B1 VL with L24S, P25L, R28S, M51F, Y52F, Q53H, S54R
B3: A12a6 Fab fragment (Fab, V domains shown)
VH: B1 VH with S60D
VL: B1 VL with L24S, P25A, M51F, Y52K, Q53L
B4: A8c7 monoclonal antibody (antibody, V domains shown)
VH: B1 VH with G57D, F105W
VL: B1 VL with L24S, M51R
B5: A4B4 Fab fragment (Fab, V domains shown)
VH: B1 VH with G57D, S60H
VL: B1 VL with L24S, P25A, M51F, Y52F, Q53L, S54D
B6: A13c4 Fab fragment (Fab, V domains shown)
VH: B1 VH
VL: B1 VL with L24S, P25L
B7: A13c4 monoclonal antibody (antibody, V domains shown)
VH: B1 VH
VL: B1 VL with L24S, P25L
B8: A17d4(1) Fab fragment (Fab, V domains shown)
VH: B1 VH
VL: B1 VL
B9: P12f4 monoclonal antibody (antibody, V domains shown)
VH: B1 VH with A32P, S60H
VL: B1 VL with L24S, P25L, M51R, Y52G, Q53L, S54P
B10: A8c7 Fab fragment (Fab, V domains shown)
VH: B1 VH with G57D, F105W
VL: B1 VL with L24S, M51R
B11: P11d4 monoclonal antibody (antibody, V domains shown)
VH: B1 VH with A32P, S60H, F105W
VL: B1 VL with L24S, Y52R, Q53L, S54A
B12: P12f2 Fab fragment (Fab, V domains shown)
VH: B1 VH with A32P, G57D, S60H
VL: B1 VL with L24S, P25L, M51F, Q53L
B13: A13a11 Fab fragment (Fab, V domains shown)
VH: B1 VH with G57D, S60H, F105W
VL: B1 VL with L24S, M51Y, Y52R, Q53H
B14: A1e9 Fab fragment (Fab, V domains shown)
VH: B1 VH with S60H, F105W
VL: B1 VL with L24S, P25L, M51F, Y52K, Q53L
B15: A12a6 monoclonal antibody (antibody, V domains shown)
VH: B1 VH with S60D
VL: B1 VL with L24S, P25A, M51F, Y52K, Q53L
B16: P12f2 monoclonal antibody (antibody, V domains shown)
VH: B1 VH with A32P, G57D, S60H
VL: B1 VL with L24S, P25L, M51F, Q53L
B17: P12f4 Fab fragment (Fab, V domains shown)
VH: B1 VH with A32P, S60H
VL: B1 VL with L24S, P25L, M51R, Y52G, Q53L, S54P
B18: A1e9 monoclonal antibody (antibody, V domains shown)
VH: B1 VH with S60H, F105W
VL: B1 VL with L24S, P25L, M51F, Y52K, Q53L
B19: A4B4 monoclonal antibody (antibody, V domains shown)
VH: B1 VH with G57D, S60H
VL: B1 VL with L24S, P25A, M51F, Y52F, Q53L, S54D

Substitutions are numbered along the chain they refer to.

Chain of RSV (Long strain) F protein on infectious virus (respiratory syncytial virus (Long strain)) (P12568 26-574): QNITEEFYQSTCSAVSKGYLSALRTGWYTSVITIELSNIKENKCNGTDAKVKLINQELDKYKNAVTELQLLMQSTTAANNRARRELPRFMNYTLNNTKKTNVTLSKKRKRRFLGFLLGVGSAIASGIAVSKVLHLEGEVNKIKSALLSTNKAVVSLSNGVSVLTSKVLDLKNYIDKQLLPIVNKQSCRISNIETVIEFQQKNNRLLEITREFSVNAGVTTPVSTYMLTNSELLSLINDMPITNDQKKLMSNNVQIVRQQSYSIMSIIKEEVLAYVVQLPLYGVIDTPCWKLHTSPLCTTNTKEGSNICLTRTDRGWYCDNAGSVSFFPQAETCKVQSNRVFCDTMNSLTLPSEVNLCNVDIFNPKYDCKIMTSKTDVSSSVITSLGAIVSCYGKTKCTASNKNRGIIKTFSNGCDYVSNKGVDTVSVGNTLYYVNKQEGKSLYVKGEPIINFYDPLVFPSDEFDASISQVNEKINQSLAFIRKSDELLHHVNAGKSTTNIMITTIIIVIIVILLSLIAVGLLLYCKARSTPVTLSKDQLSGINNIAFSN

This test addresses RSV (Long strain) F protein on infectious virus (respiratory syncytial virus (Long strain)) (UniProt P12568). The experiment in a line: cell-based or functional assay.
As for B1, the Fold Difference (Control IC50), against palivizumab is 15 fold and the Fold Difference (Curve IC50), against palivizumab was determined as 13 fold.
For B2, in that order: 3 fold and 2 fold.
Molecule B3 registered a Fold Difference (Control IC50), against palivizumab of 17 fold and a Fold Difference (Curve IC50), against palivizumab of 16 fold.
In turn, B4 came in with a Fold Difference (Control IC50), against palivizumab of 14 fold and a Fold Difference (Curve IC50), against palivizumab of 13 fold.
For B5, in that order: 13 fold and 11 fold.
The corresponding values for B6 are 21 fold and 17 fold.
The corresponding values for B7 are 14 fold and 12 fold.
In turn, B8 registered a Fold Difference (Control IC50), against palivizumab of 31 fold and a Fold Difference (Curve IC50), against palivizumab of 25 fold.
Regarding B9, the Fold Difference (Control IC50), against palivizumab turned out to be 23 fold and the Fold Difference (Curve IC50), against palivizumab amounted to 19 fold.
Take B10: the Fold Difference (Control IC50), against palivizumab worked out at 34 fold and the Fold Difference (Curve IC50), against palivizumab turned out to be 3 fold.
For B11, in that order: 19 fold and 21 fold.
For B12, in that order: 16 fold and 11 fold.
Take B13: the Fold Difference (Control IC50), against palivizumab was found to be 5 fold and the Fold Difference (Curve IC50), against palivizumab amounted to 4 fold.
The molecule B14 displayed a Fold Difference (Control IC50), against palivizumab of 4 fold and a Fold Difference (Curve IC50), against palivizumab of 3 fold.
On to B15, for which the Fold Difference (Control IC50), against palivizumab was found to be 15 fold and the Fold Difference (Curve IC50), against palivizumab came to 13 fold.
B16: the Fold Difference (Control IC50), against palivizumab is 24 fold and the Fold Difference (Curve IC50), against palivizumab stood at 20 fold.
For B17, in that order: 15 fold and 10 fold.
Molecule B18 returned a Fold Difference (Control IC50), against palivizumab of 8 fold and a Fold Difference (Curve IC50), against palivizumab of 7 fold.
For B19, in that order: 35 fold and 27 fold.
